Reference: patent US10280218B2, “Antibodies binding to BMP4, and uses thereof” (ACADEMISCH MEDISCH CENTRUM, priority 2014, dated 2019)

T1: BMP2 (Homo sapiens, UniProt P12643)
T1 sequence (P12643 283-396): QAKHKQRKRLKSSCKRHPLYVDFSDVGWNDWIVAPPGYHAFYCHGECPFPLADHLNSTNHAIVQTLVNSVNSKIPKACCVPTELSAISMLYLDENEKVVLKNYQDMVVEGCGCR

T2: BMP5 (Homo sapiens, UniProt P22003)
T2 sequence (P22003 317-454): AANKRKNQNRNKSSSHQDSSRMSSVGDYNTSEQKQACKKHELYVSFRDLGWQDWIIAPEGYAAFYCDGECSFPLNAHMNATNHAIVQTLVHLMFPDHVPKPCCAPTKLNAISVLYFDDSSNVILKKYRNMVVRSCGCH

T3: BMP7 (Homo sapiens, UniProt P18075)
T3 sequence (P18075 293-431): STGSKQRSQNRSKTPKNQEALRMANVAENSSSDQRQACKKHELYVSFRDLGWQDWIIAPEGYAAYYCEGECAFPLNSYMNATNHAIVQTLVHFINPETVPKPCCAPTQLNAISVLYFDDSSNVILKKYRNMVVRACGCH

T4: BMP4 (Homo sapiens, UniProt P12644)
T4 sequence (P12644 293-408): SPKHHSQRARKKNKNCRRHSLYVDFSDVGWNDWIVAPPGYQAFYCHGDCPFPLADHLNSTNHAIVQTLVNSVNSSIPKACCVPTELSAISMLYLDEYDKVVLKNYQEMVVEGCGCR


Legend:
Assay in all cases: Surface plasmon resonance (SPR), BMPs injected over VHH-coated chip
[1] = molecular target: T1, BMP2; set-up: ka (BMP2): unit not given here; details: molecule coupled to chip, —: No binding detected
Experimental: (§1) In a first set of experiments, controls and VHHs (either as monomers or dimers) were coupled to SPR chips and the measurement of BMP affinities was obtained by injecting the different BMPs to the plate.
(§2) Serial dilutions (2.0-10 μg/ml) of purified VHHs were spotted on an amine-specific SensEye gold-film gel-type SPRchip (Ssens), using a Continuous Flow Microspotter (Wasatch Microfluidics, Salt Lake City, Utah, United States) as described (Lokate et al., 2007). BMP binding was analyzed on an IBIS MX96 (IBIS Technologies, Enschede, The Netherlands) instrument by performing injections with dilution series (0.05-2.0 μg/ml) of recombinant BMPs on the VHH-coated chip. In each injection, BMPs were injected and incubated for 8 min, followed by 15 min thorough washing with binding buffer (PBS+0.05% Tween20+0.05% sodium azide) to measure dissociation. Epitope binning was done by injecting VHH dilutions (2.0 μg/ml) over the chip, immediately after the dissociation step. Injections with blank binding buffer were used as reference. After each concatenated injection, the chip was regenerated with 10 mM glycine-HCl, pH 2.0. Experimental data were processed with SPRintX software (IBIS Technologies) and kinetic parameters were determined using Scrubber2 software (BioLogic Software, Campbell, ACT, Australia). Binding constants were obtained by global fitting to a one-site binding model.

[2] = molecular target: T2, BMP5; assay type: binding; details: molecule coupled to chip; unit inferred
Experimental: as §1, with “To confirm their BMP specificities and to elucidate their binding affinities, our VHHs were subjected to surface plasmon resonance (SPR) analysis. In” for “In”
as §2

[3] = molecular target: T3, BMP7; assay type: binding; details: for Kd: molecule coupled to chip, unit inferred, — not defined there (Table 1: No binding detected)
Experimental: as §1, with “To confirm their BMP specificities and to elucidate their binding affinities, our VHHs were subjected to surface plasmon resonance (SPR) analysis. In” for “In”
as §2

[4] = molecular target: T4, BMP4; assay type: binding; set-up: purchased R&D systems; ka (BMP4): unit not given here; details: molecule coupled to chip
Experimental: as §1, with “To confirm their BMP specificities and to elucidate their binding affinities, our VHHs were subjected to surface plasmon resonance (SPR) analysis. In” for “In”
as §2

| kd (BMP2) [1] | Kd [2] [nM] | Kd [3] [nM] | kd (BMP4) [4] | ka (BMP2) [1] | unspecific binding of dimers to BMP7 (SPR, in words) ([3]; in contrast to the functional results) | ka (BMP4) [4] | Molecule |
| --- | --- | --- | --- | --- | --- | --- | --- |
| 16.2 10^−5 sec^−1 | 68 | 80 | 3.9 10^−5 sec^−1 |  |  |  | hNoggin (protein) QHYLHIRPAPSDNLPLVDLIEHPDPIFDPKEKDLNETLLRSLLGGHYDPGFMATSPPEDRPGGGGGAAGGAEDLAELDQLLRQRPSGAMPSEIKGLEFSEGLAQGKKQRLSKKLRRKLQMWLWSQTFCPVLYAWNDLGSRFWPRYVKVGSCFSKRSCSVPEGMVCKPSKSVHLTVLRWRCQRRGGQRCGWIPIQYPIISECKCSC |
| 10.7 10^−5 sec^−1 | 95 | 31 | 3.4 10^−5 sec^−1 | 19.4 | shown to bind | 34.6 | C8E7: E7 linked to C8, hetero-dimer VHH bihead (protein) EVQLVESGGGLVQAGGSLRLSCAASGRTFRINDMGWYRQAPGKSRDMVARITSGGNTNYADSVKGRFTISRDNAKNTVYLQMNSLKPEDTAVYYCNADGLRFDSTRYRPFDSWGQGTQVTVSSGGGGSGGGGSEVQLVESGGGLVQAGGSLRLSCAASGSIRGFVAMAWYRQAPGKQREWVATVTNGGTLYGDSVKGRFTGSRDNAKNTVYLQMNSLKPEDTAVYYCALRQIGASGYDYWGQGTQVTVSS |
